One assay deals with HeLa cells. As to the kind of experiment: MTT cell viability assay, HeLa. The following applies: no delivery agent. Type of assay: cell-based. How it is done:
(§1) Accordingly, cell viability was measured using an MTT assay to determine the anti-proliferative activity for Compounds No. 15, 16, 17, and 18 with regard to three different cell types (HeLa, PC-3, and A549). The cells utilized were chosen due to reported synthetic lethal interactions with PLK1 inhibition

Another assay concerns PC-3 cells. Nature of the assay: MTT cell viability assay, PC-3. The format is cell-based. The following applies: PC-3, PTEN deficient prostate cancer, no delivery agent. How it is done: as §1
A general note: Tetrazolium assays rely on reduction of a dye to a coloured formazan, in cell work by metabolically active cells.

A further assay concerns A549 cells. As to the kind of experiment: MTT cell viability assay, A549. Type of assay: cell-based. The following applies: A549, Kras mutant lung cancer, no delivery agent. How it is done:
as §1

For assay [1], the system named is RPE cells expressing PLK1 C67V mutant. Type of assay: cell-based. The conditions noted are these: for sensitivity of RPE cells to FLIPs, in words: FIG. 8.
The target of a further assay is PLK1 PBD (Homo sapiens, UniProt P53350). Nature of the assay: Fluorescence polarization competitive binding assay, PLK1 PBD. As for the experimental part: According to the assay, binding of a fluorescent tracer peptide to a protein increased polarization of the emitted fluorescence. […] The ability of test molecules to bind to the PBD was quantitated by a reduction in mP values that occurred as the tracer was displaced from the PBD, and plotted to calculate as an IC50 value.
(§2) The affinities of the peptides for PLK1 and PLK3 were measured by plotting the loss of polarization against increasing concentration of competitor peptide through use of an optimized assay and selectivity determination.
For orientation: Polarisation of emitted light reports the rotation of a fluorescent probe.

The target of another assay is T1, PLK3 PBD (Homo sapiens, UniProt Q9H4B4).
T1 construct: A similar assay format was developed for the PLK3 PBD
T1 sequence (Q9H4B4 335-646 limits assumed): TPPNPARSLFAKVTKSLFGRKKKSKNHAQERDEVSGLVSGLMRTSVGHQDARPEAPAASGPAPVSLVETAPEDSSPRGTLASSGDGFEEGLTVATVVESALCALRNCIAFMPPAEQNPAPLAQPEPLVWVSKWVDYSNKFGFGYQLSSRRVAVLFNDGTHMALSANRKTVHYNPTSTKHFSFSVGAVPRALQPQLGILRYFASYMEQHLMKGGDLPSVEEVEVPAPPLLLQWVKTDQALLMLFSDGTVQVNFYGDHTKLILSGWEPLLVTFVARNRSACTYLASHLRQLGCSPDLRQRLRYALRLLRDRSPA
As to the kind of experiment: Fluorescence polarization competitive binding assay, PLK3 PBD. As for the experimental part: (§3) The binding of fluorescein-labelled tracer peptides used for both assays was determined to see if there was a difference in affinity for their respective PBD. A titration curve for each tracer/PLK PBD complex was generated to determine Kd values for each and therefore compare the relative binding affinities.
as §2

A further assay deals with PC3 cells. As to the kind of experiment: Cell cycle analysis of serum-starved PC3 cells. Type of assay: cell-based. The following applies: 200 μM, 24 hours, PC3 synchronized by serum starvation; mock 19.9%. How it is done: To examine the cellular phenotype of PLK1 inhibition through the Polo-box domain, PC3 cells synchronized in G1 through serum starvation were treated with Compound No. 16. Cells were synchronized by serum starvation for 24 hours prior to treatment. Untreated cells were serum starved and then released into drug-free media for 24 hours (left panel) as control. Sample cells were serum starved and then treated with 200 μM Compound No. 16 for 24 hours (right panel).

For assay [2], the system named is RPE cells expressing wild-type PLK1. Type of assay: cell-based. The conditions noted are these: read-out: growth inhibition, RPE cells expressing wild-type PLK1.
Assay [3] has as its system BubR1 phosphorylation in PC-3 cells. As to the kind of experiment: Immunoblotting for BubR1 phosphorylation and pHH3 in PC-3 cells. Type of assay: cell-based. The following applies: 5-30 μM, 23 hours. How it is done: To measure the PLK1 inhibitory activity of the FLIPs in cells, phosphorylation of the mitotic protein BubR1 was measured. PC-3 cells were serum starved for 72 h and released from the G1-S boundary. 16 h after released, cells were arrested at prometaphase by treatment with 100 ng/ml Colcemid or treated with 50 nM BI2536 PLK1 kinase inhibitor or 5-30 μM of Compound No. 18 for 23 hours. Cells were trypsinized and whole cell lysate was prepared. The obtained total cell lysate was subjected to immunoblotting with anti-BubR1 (top panel, FIG. 9), anti-β tubulin (middle panel, FIG. 9), and anti-pHH3 (bottom panel, FIG. 9).

Assay [4] concerns the target polo-box domain (PBD) of polo-like kinase 1 (PLK1) (UniProt P53350). As to the kind of experiment: fluorescence polarization competition on PLK1 PBD.
The target of assay [5] is polo-box domain (PBD) of polo-like kinase 3 (PLK3) (UniProt Q9H4B4). As to the kind of experiment: fluorescence polarization competition on PLK3 PBD.
Assay [6] concerns the target polo-box domain (PBD) of polo-like kinase 1 (PLK1) (UniProt P53350). Nature of the assay: from FP IC50s, (IC50 PLK3 PBD/IC50 PLK1 PBD)x5; PLK1 PBD against PLK3 PBD.
In assay [7] the target is polo-like kinase 1 (PLK1), wild type, in cells (UniProt P53350 2-603, limits assumed). Nature of the assay: cell-based or functional assay.
Assay [8] concerns the target polo-box domain (PBD) of polo-like kinase 1 (PLK1) (UniProt P53350). As to the kind of experiment: from FP IC50s; PLK1 PBD against PLK3 PBD.
For assay [9] the target is unchanged. Nature of the assay: fluorescence polarization competition, displacement of tracer peptide from PLK1 PBD.
Assay [10] concerns the target polo-box domain (PBD) of polo-like kinase 3 (PLK3) (UniProt Q9H4B4). As to the kind of experiment: fluorescence polarization competition, displacement of tracer peptide from PLK3 PBD.
The target in assay [11] is T2, polo-box domain (PBD) of polo-like kinase 3 (PLK3) (UniProt Q9H4B4 335-646, limits assumed).
T2 construct: domain: polo-box domain (PBD); also called PLK3 PBD; PBD of PLK3
T2 sequence (looked up): T1 sequence (Q9H4B4 335-646 limits assumed)
Nature of the assay: fluorescence polarization titration of tracer with PLK3 PBD. How it is done:
(§4) According to the assay, binding of a fluorescent tracer peptide to a protein increased polarization of the emitted fluorescence. […] The ability of test molecules to bind to the PBD was quantitated by a reduction in mP values that occurred as the tracer was displaced from the PBD, and plotted to calculate as an IC₅₀ value.
as §3

For assay [12], the target named is T2, polo-box domain (PBD) of polo-like …. As to the kind of experiment: fluorescence polarization competition, displacement of tracer peptide from PLK3 PBD. As for the experimental part:
as §4, §3, §2

In assay [13] the target is T3, polo-box domain (PBD) of polo-like kinase 1 (PLK1) (UniProt P53350 367-603, limits assumed).
T3 construct: domain: polo-box domain (PBD); the background speaks of the four known human PLKs and the residue numbers (L491) fit human PLK1; also called PLK1 PBD; PBD of PLK1
Nature of the assay: fluorescence polarization competition, displacement of tracer peptide from PLK1 PBD.
Excerpt: as §4

For assay [14], the target named is T3, polo-box domain (PBD) of polo-like …. Nature of the assay: fluorescence polarization competition on PLK1 PBD.

Square brackets hold non-standard residues; d marks the D form. Ends that are not written are not given here. Peptide text beside a SMILES is read from it. * marks the point of attachment. Benzoyl(4-octyl) = CCCCCCCCc1ccc(C(=O)*)cc1; pT = C[C@@H](OP(=O)(O)O)[C@H](N)C(=O)O; X1 = CCCCCCCCCc1ccc(C(=O)*)cc1

Sequence of polo-like kinase 1 (PLK1), wild type, in cells (P53350 2-603 limits assumed): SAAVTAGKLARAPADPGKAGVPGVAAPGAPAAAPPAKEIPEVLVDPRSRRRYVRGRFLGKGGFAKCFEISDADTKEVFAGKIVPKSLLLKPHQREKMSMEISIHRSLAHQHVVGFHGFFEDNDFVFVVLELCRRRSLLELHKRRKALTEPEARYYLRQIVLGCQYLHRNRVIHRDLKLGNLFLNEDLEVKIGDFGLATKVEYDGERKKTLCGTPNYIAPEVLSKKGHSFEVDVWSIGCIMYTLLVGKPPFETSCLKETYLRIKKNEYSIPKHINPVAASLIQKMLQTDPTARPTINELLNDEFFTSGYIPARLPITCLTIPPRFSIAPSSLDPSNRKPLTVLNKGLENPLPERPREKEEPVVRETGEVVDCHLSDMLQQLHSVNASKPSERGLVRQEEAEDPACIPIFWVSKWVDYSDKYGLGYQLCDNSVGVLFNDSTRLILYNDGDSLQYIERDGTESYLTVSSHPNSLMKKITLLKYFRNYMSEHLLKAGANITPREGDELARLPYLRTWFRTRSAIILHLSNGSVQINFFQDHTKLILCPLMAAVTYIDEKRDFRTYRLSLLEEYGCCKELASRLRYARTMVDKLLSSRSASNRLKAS
T3 sequence (P53350 367-603 limits assumed): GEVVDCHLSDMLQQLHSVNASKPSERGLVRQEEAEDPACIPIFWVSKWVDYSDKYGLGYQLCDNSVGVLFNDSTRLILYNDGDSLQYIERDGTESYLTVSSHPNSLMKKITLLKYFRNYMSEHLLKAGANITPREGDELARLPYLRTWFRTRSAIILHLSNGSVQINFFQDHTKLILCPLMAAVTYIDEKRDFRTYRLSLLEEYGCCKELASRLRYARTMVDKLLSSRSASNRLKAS
Sequence of polo-box domain (PBD) of polo-like kinase 1 (PLK1) (UniProt P53350) (P53350 367-603 limits assumed): as above
Sequence of PLK1 PBD (P53350 367-603 limits assumed): as above

With `CCCCCCCCc1ccc(C(=O)N[C@@H](CO)C(=O)N[C@H](C(=O)N[C@@H](C)C(=O)N[C@H](C(=O)O)[C@@H](C)CC)[C@@H](C)OP(=O)(O)O)cc1` [Compound 15] ({Benzoyl(4-octyl)}-S[pT]AI-OH; C-terminus assumed), the IC50 was determined as 128 µM in the assay on HeLa cells, 55.7 µM in the assay with PC-3 cells and 79.5 µM in the assay on A549 cells. Also, the “sensitivity of RPE cells to FLIPs, in words” value in assay [1] is “sensitive”.

For the molecule `CCCCCCCCc1ccc(C(=O)N[C@@H](CO)C(=O)N[C@H](C(=O)N2CCC[C@H]2C(=O)N[C@@H](CC(C)C)C(=O)O)[C@@H](C)OP(=O)(O)O)cc1` [Compound 16] ({Benzoyl(4-octyl)}-S[pT]PL-OH; C-terminus assumed), the “fold reduction of PLK1 PBD binding relative to parent compound” value on PLK1 PBD is 3-4 fold. In addition, the “fold reduction of PLK3 PBD binding relative to parent compound” value on PLK3 PBD is reported as 3-4 fold. The IC50 was found to be 620 ± 72.5 µM at PLK3 PBD (competition with fluorescent tracer peptide, read-out: PLK3 PBD FP IC50); 158 µM in assay [2]; 86.8 µM in assay [1] (C67V mutant PLK1, read-out: growth inhibition, RPE cells expressing PLK1 C67V mutant). In addition, the “accumulation in G2/M” value in the assay with PC3 cells was determined as 53%. The “sensitivity of RPE cells to FLIPs, in words” value in [1] was “sensitive”.

On to `CCCCCCCCCc1ccc(C(=O)N[C@@H](CO)C(=O)N[C@H](C(=O)N[C@@H](C)C(=O)N[C@H](C(N)=O)[C@@H](C)CC)[C@@H](C)OP(=O)(O)O)cc1` [Compound 18] (X1-S[pT]AI-NH2; N-terminus assumed), for which, in assay [3], the “BubR1 phosphorylation (anti-BubR1 immunoblot)” value was “inhibited the BubR1 phosphorylation” and the “mitotic block (anti-pHH3 immunoblot)” value was “blocked the cells at mitosis”.

As for GPLATS[pT]PNGL (SEQ ID NO: 8), the values for the fold reduction of affinity against the PLK3 consensus peptide (SEQ ID NO: 7) in [4] and in [5] were 2 fold and 3 fold, respectively. Further, the Selectivity Index in assay [6] was determined as 2860.

B1: Compound No. 18, 4-nonyl S[pT]AI (SEQ ID NO: 13), R1 group on the C-terminal (peptide)
peptide: S[pT]AI
modifications: also: 4-nonyl R1 group on C-terminus, 'C-terminal amidated nonyl', terminal chemistry unclear
Consider B1, for which, in assay [7], the “MTT IC50 [µM] HeLa” value is 38.2 µM and the “MTT IC50 [µM] PC-3” value is 27 µM. This molecule also yielded a Selectivity Index in assay [8] of 78. The molecule also yielded an IC50 in [9] of 1.23 µM. Moreover, in [10], the IC50 is 95.9 µM.

B2: Compound No. 16, 4-octyl S[pT]PL (SEQ ID NO: 14) (peptide)
peptide: {Benzoyl(4-octyl)}-S[pT]PL
Turning to B2, in assay [7], the “MTT IC50 [µM] A549” value came out at 160 µM, the “MTT IC50 [µM] HeLa” value was 142 µM and the “MTT IC50 [µM] PC-3” value is 103 µM. The Selectivity Index in assay [8] stood at 2580. This molecule also returned a fold weaker affinity against Compound No. 15 in [4] of 3 to 4 fold. Further, the fold weaker affinity against Compound No. 15 in assay [5] is 3 to 4 fold. In assay [9], this molecule showed an IC50 of 1.2 µM.

B3: PLK3 binding tracer (fluorescein-labelled SEQ ID NO: 7) (peptide)
peptide: GPLATS[pT]PKNG
modifications: also: fluorescein-labelled, site not given here
notes: also called PLK3 tracer; fluorescein-labelled tracer for the PLK3 PBD
As for B3, the dissociation constant (Kd) in assay [11] turned out to be 0.0272 µM.

B4: Cdc25C PBD substrate peptide LLCS[pT]PNGL (SEQ ID NO: 1) (peptide)
peptide: LLCS[pT]PNGL
notes: also called native Cdc25C peptide
In assay [6], B4 registered a Selectivity Index greater than 17000. Also, the IC50 in assay [9] was 0.17 µM; in assay [12] it was greater than 600 µM.

B5: Compound No. 15, 4-octylbenzamide N-capped S[pT]AI (SEQ ID NO: 13) (peptide)
peptide: {Benzoyl(4-octyl)}-S[pT]AI
With B5, in assay [7], the “MTT IC50 [µM] A549” value was found to be 79.5 µM, the “MTT IC50 [µM] HeLa” value amounted to 128 µM and the “MTT IC50 [µM] PC-3” value is 55.7 µM. In [8], this molecule came in with a Selectivity Index of 1860. In assay [9], this molecule gave an IC50 of 0.41 µM. This molecule also registered an IC50 in [10] of 153 µM.

B6: Compound #8, methylamino FLIP (R1 = NCH3) (peptide)
peptide: {4‑(methylamino)benzoyl}-S[pT]PNGL
modifications: also: further groups not given here
notes: see m14; also called Compound No. 8
Take B6: the IC50 in assay [13] worked out at 11.2 µM.

B7: Compound #9, propylamino FLIP (R1 = NCH2CH2CH3) (peptide)
peptide: {4‑(propylamino)benzoyl}-S[pT]PNGL
modifications: also: further groups not given here
notes: see m14; also called Compound No. 9
On to B7, for which the “fold increase of activity against Compound #8” value in assay [14] was greater than 2 fold. Moreover, the IC50 in assay [13] is 5.4 µM.

B8: Compound No. 17, 4-octyl S[pT]AI (SEQ ID NO: 13), R1 group on the C-terminal (peptide)
peptide: S[pT]AI
modifications: also: 4-octyl R1 group on C-terminus, 'C-terminal amidated octyl', terminal chemistry unclear
Consider B8, for which the “MTT IC50 [µM] HeLa” value in [7] was found to be 38.9 µM. For the same molecule, the “MTT IC50 [µM] PC-3” value in assay [7] worked out at 41.5 µM. In assay [8], this molecule had a Selectivity Index of 79. Also, the IC50 in assay [9] was found to be 1.49 µM; in assay [10] it was 117 µM.

In general, Kd refers to the constant that tells how readily two partners part at equilibrium. High values mean weaker binding, low ones tighter binding.
